Assay results as given in patent US20240150494A1.

Legend:
[1] = molecular target: G2-Rituximab (galactosylated afucosylated glycoform of rituximab) (human); assay: SPR, 256 to 8 nM in 2-fold steps
[2] = molecular target: G2F-Rituximab (galactosylated fucosylated glycoform of rituximab) (human); assay: SPR, 256 to 8 nM in 2-fold steps

A KD1 [1] of 29.9 nM, a KD2 [1] of 2.3 nM and a KD1 [2] of 55.2 nM were found for “tetrameric FcγRIIIA (from UniProt P08637 17-208) (receptor)” in this work. The KD2 [2] was 2.29 nM.
